In assay [1] the target is T1, mouse glucagon receptor (mGR) (mouse, UniProt Q61606 27-485).
T1 construct: whole, on cells; The assay used crude plasma membranes of the expressing 293HEK cells
The assay is described as follows: SPA competition against 125I-labelled glucagon on mGR membranes; Cheng-Prusoff.

For assay [2], the target named is T2, human glucagon-like peptide 1 receptor (hGLP-1R) (human, UniProt P43220 24-463).
T2 construct: whole, on cells; The assay used crude plasma membranes of the expressing 293HEK cells
The assay is described as follows: SPA competition against 125I-labelled GLP-1 amide on hGLP-1R membranes; Cheng-Prusoff.

Assay [3] concerns the target T3, human glucagon receptor (hGR) (human, UniProt P47871 26-477).
T3 construct: whole, on cells; The cAMP assay used whole cells of the same line
The assay is described as follows: SPA competition against 125I-labelled glucagon on hGR membranes; Cheng-Prusoff. The protocol: Plates are sealed, mixed end over end, and read with a MicroBeta® scintillation counter after 12 hours of settling time at room temperature.

In assay [4] the target is T3, human glucagon receptor (hGR). The assay is described as follows: cell-based or functional assay.
For assay [5], the target named is T4, human glucose-dependent insulinotropic peptide receptor (GIP-R) (human, UniProt P48546 22-466).
T4 construct: whole, on cells; The assay used crude plasma membranes of the expressing CHO-S cells; also called human GIP-R; hGIP-R
T4 sequence (looked up): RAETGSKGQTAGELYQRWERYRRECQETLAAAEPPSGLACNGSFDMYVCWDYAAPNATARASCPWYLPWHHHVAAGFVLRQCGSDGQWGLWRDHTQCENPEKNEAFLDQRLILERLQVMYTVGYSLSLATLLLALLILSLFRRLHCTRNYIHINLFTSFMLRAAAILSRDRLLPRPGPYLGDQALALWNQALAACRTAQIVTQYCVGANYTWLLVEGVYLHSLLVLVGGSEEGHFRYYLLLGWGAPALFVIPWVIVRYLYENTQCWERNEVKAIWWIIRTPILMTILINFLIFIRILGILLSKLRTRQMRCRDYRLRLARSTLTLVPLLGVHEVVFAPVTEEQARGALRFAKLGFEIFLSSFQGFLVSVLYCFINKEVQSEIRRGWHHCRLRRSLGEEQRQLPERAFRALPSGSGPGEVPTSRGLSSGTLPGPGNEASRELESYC
Put plainly: SPA competition against 125I-labelled GIP on human GIP-R membranes; Cheng-Prusoff.

Non-standard residues stand in square brackets, D forms with d. No end group written: not given here. Aib = CC(C)(N)C(=O)O

We go through one molecule from patent US20160311881A1 (Eli Lilly, published 2016).

T3 sequence (P47871 26-477): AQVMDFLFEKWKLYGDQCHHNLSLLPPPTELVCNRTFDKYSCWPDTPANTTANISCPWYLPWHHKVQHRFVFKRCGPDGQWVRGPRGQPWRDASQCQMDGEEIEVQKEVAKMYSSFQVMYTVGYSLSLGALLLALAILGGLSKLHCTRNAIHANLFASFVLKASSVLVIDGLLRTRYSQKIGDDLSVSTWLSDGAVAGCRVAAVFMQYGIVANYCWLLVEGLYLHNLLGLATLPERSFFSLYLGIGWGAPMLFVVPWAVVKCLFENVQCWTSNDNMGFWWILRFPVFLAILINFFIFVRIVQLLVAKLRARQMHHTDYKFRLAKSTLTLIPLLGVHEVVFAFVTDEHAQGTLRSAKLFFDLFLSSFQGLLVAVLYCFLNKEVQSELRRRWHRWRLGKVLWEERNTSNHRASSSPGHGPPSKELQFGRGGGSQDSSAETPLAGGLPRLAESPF
T1 sequence (Q61606 27-485): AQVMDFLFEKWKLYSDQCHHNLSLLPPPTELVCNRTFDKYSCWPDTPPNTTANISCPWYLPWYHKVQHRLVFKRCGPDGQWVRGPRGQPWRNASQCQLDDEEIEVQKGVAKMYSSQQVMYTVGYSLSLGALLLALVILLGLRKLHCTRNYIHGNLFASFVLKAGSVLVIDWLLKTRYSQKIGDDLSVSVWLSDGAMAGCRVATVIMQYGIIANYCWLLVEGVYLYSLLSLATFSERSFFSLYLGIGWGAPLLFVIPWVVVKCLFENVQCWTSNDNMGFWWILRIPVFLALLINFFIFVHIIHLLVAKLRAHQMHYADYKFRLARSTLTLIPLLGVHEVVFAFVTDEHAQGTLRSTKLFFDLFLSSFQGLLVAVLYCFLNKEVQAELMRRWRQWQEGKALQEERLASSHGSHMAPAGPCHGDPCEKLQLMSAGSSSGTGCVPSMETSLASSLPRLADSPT

B1: compound of SEQ ID NO: 2 (peptide)
peptide: HAQGTFLSDYSKYLD[Aib]KKAQEFVEWLLKTGPSSGAPPKSK-NH2
modifications: N-terminus assumed
SMILES: CC(C)C[C@H](NC(=O)[C@H](Cc1c[nH]c2ccccc12)NC(=O)[C@H](CCC(=O)O)NC(=O)[C@@H](NC(=O)[C@H](Cc1ccccc1)NC(=O)[C@H](CCC(=O)O)NC(=O)[C@H](CCC(N)=O)NC(=O)[C@H](C)NC(=O)[C@H](CCCCN)NC(=O)[C@H](CCCCN)NC(=O)C(C)(C)NC(=O)[C@H](CC(=O)O)NC(=O)[C@H](CC(C)C)NC(=O)[C@H](Cc1ccc(O)cc1)NC(=O)[C@H](CCCCN)NC(=O)[C@H](CO)NC(=O)[C@H](Cc1ccc(O)cc1)NC(=O)[C@H](CC(=O)O)NC(=O)[C@H](CO)NC(=O)[C@H](CC(C)C)NC(=O)[C@H](Cc1ccccc1)NC(=O)[C@@H](NC(=O)CNC(=O)[C@H](CCC(N)=O)NC(=O)[C@H](C)NC(=O)[C@@H](N)Cc1c[nH]cn1)[C@@H](C)O)C(C)C)C(=O)N[C@@H](CC(C)C)C(=O)N[C@@H](CCCCN)C(=O)N[C@H](C(=O)NCC(=O)N1CCC[C@H]1C(=O)N[C@@H](CO)C(=O)N[C@@H](CO)C(=O)NCC(=O)N[C@@H](C)C(=O)N1CCC[C@H]1C(=O)N1CCC[C@H]1C(=O)N[C@@H](CCCCN)C(=O)N[C@@H](CO)C(=O)N[C@@H](CCCCN)C(N)=O)[C@@H](C)O
notes: Synthetic 40-residue glucagon analog made by solid-phase synthesis on Rink amide resin
One may read the Ki as a measure of affinity in units of concentration, obtained from inhibition or displacement. A lower Ki goes with higher affinity. Turning to B1, the Ki amounted to 0.494 nM in assay [1], 1220 nM in assay [2], 0.397 nM in assay [3] and 1050 nM in assay [5]. Moreover, the “hGR stimulated cAMP functional assay (HTRF), relative EC50” value in assay [4] amounted to 0.0356 nM.
